{
  "source": "paper PMC9136706",
  "key": {"[1]": {"target": "Expanded P22 virus-like particle (bacteriophage P22 capsid) (bacteriophage P22) (UniProt P26747)", "sequence (P26747 whole entry)": "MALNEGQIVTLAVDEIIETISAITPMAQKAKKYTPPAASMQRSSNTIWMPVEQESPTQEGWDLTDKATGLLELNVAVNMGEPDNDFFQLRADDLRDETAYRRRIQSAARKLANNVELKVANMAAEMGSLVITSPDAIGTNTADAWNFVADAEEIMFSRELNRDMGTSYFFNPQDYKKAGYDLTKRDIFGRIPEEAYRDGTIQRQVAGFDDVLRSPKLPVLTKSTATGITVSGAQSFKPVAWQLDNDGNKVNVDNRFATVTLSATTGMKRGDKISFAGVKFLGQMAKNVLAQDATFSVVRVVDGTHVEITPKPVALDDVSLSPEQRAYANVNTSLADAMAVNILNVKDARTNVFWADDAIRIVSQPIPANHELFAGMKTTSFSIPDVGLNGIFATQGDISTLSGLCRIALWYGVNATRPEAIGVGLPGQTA", "assay": "SEC-MALS"}, "[2]": {"target": "DechCD40L (Dec-fused human CD40L) (bacteriophage L | human) (UniProt P29965)", "assay": "SEC"}, "[3]": {"target": "human CD40 on HEK-Blue CD40L cells (human) (UniProt P25942)", "sequence (P25942 21-277)": "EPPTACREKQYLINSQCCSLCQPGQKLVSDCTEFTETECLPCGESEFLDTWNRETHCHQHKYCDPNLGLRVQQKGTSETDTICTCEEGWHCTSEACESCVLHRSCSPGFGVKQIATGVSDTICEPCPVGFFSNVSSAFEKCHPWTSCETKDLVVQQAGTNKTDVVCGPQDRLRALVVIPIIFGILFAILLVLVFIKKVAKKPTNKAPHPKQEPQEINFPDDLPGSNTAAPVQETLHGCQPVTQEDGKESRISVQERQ"}},
  "note": "Where “and” joins values, the source holds several entries; their conditions need not be identical. Equal values may be shown once.",
  "data": [
    {"substance": "Dec (decoration protein of bacteriophage L), wild type (natural protein)", "values": [
      {"measurement": "stoichiometry N (Dec per capsid)", "setting": "[1]", "value": 60}
    ]},
    {"substance": "DechCD40L (Dec-fused human CD40L) (from UniProt P29965 114-261) (ligand)", "values": [
      {"measurement": "percent of the total peak in the shoulder multimer peak", "setting": "[2]", "value": 8.2, "unit": "%"},
      {"measurement": "stoichiometry N", "setting": "[2]", "value": "3 and 6"}
    ]},
    {"substance": "DechCD40L bound to P22 (DechCD40L-P22) (from UniProt P29965 114-261; P26747 1-430) (complex)", "values": [
      {"measurement": "fold lower EC50 of the SEAP reporter than free hCD40L", "setting": "[3]", "value": 53.6, "unit": "fold"}
    ]}
  ]
}
